Reference: US20250163183A1 (COAGULANT THERAPEUTICS, published 2025)
Substitutions are numbered along the chain they refer to.

B1: SR16983-R3-P2-D01 (VHH)
VHH: EVQLVESGGGLVQAGGSLRLSCAASGFTFSTKWMYWVRQGPGKGLEWVSTIDASGGSTYYADSVKGRFTISRDNTEKKVYLQMNSLESADTAVYYCARSAGGQFRGRGTQVTVSS
B2: SR16983-R3-P3-H05 (VHH)
VHH: QVQLVESGGGLVQPGRSLRLSCAASGFTFSTKWMYWVRQGPGKGLERVAAIDAGGGSTYYADSVKGRFTISRDNSENTVYLQMNSLESADTAVYYCARSEGGLFRGRGTQVTVSA
B3: SR16983-R3-P5-C09 (VHH)
VHH: B2 VHH with V2L, R16G, G54S, E76K, V79L, L103Q, A115S
B4: SR16983-R2-P3-B05 (VHH)
VHH: QLQLVESGGGLVQPGGSLRLSCAASGRTVGSYVMGWFRQAPGKEREFLAANSRSTGNTVYADSVKGRFTISRDDAKNTLYLQMNSLKPEDTAVYYCATRASINYNYANWPYWGQGTQVTVSS
B5: SR16983-R2-P4-D07 (VHH)
VHH: B4 VHH with L2V, P14A, V29I, L48V, A49V, N51F, N57H, T58I, V59S, T98A
B6: SR16983-R3-P4-E06 (VHH)
VHH: B4 VHH with P14A, V33A, M34V, G35A, F47L, N51S, S71A, T98A
B7: SR16983-R3-P3-E04 (VHH)
VHH: B4 VHH with L2V, P14A, V29F, L48V, N51A, A61P, T98A
B8: SR16983-R3-P5-F03 (VHH)
VHH: B4 VHH with L2V, P14A, S31T, V33A, M34I, L48V, N51F, A61P, T98A
B9: SR16983-R4-P1-C05 (VHH)
VHH: B4 VHH with P14A, V29F, E46A, L48V, A49G, N51A, N57T, A61L, T98A
B10: SR16983-R2-P2-D05 (VHH)
VHH: QVQLVESGGGLVQPGGSLTLSCAASGTIESINDMGWYRQAPGKQRELVAAITSGGSTNYADSVKGRFTISRDNAKNTVYLQMNSLKPEDTAVYYCNAEVKRHYYYDSAGHRYWGQGTQVTVSS
B11: SR16983-R2-P4-G02 (VHH)
VHH: QLQLVESGGGLVQAGGSLRLSCAASGTTFSFVYMGWYRQAPGNQRDLVARISSDGSTNYADSVKGRFTISGDNAKNTVYLQMNSLRPEDTARYYCFYNGHLNKWGQGTQVTVSS
B12: SR16983-R2P1F04 (VHH)
VHH: B11 VHH with G26R, V32N, D54G, S56I, R86K
B13: SR16983-R3-P2-G01 (VHH)
VHH: B11 VHH with T27S, V32N, D54G, S56I, R86K, H100Y, Q106R
B14: SR16983-R2-P2-F02 (VHH)
VHH: B11 VHH with G71R
B15: SR16983-R2-P2-H04 (VHH)
VHH: B11 VHH with L2V, Y37F, R86K, Y94F, G99A
B16: SR16983-R2-P2-F07 (VHH)
VHH: B11 VHH with T27S, V32N, D54G, S56I, N76D, R86K, H100Y
B17: SR16983-R2-P5-A12 (VHH)
VHH: QVQLVESGGGLVEAGGSLRLSCAASGRTFSSGALGWFRQAPGKEREFVATIRWSDERKQYSEFVKGRFTISRDSAKNTVYLQMNNLQPEDTAVYYCRSTVGNVLYWGQGTQVTVSS
B18: SR16983-R2-P4-E03 (VHH)
VHH: B17 VHH with E13Q
B19: SR16983-R3-P3-A08 (VHH)
VHH: EVQLVESGGGLVQAGGSLRLSCAASGRTFVGTYVMGWFRQAPGKAREFVAASSRSTGNTVYLDSVKGRFTVSRDDAKNTLYLQMNSLKPEDTAVYYCAARASINYNAANWPYWGQGTQVTVSS
B20: SR16983-R3-P4-G01 (VHH)
VHH: B19 VHH with E1Q, V2L, T32S, A45E, V71I, T79M, A99T, A107Y
B21: SR16983-R3-P5-A06 (VHH)
VHH: QLQLVESGGGLVQAGGSLRLSCVASGTTFTIEDIGWYRLAPGKQRELVAIISGGNTNYADSVKGRFTISRDNAKNTVYLQMNSLKPEDTAVYYCNGRTKATVKWGRGTQVTVSS
B22: SR16983-R2-P5-D01 (VHH)
VHH: B21 VHH with A73T
B23: SR16983-R3-P2-F07 (VHH)
VHH: QLQLVESGGGLVQAGGSLRLSCAASGTTFDMNSMGWYRQAPGFKRDLVATISIGGDTNYADSVKGRFTISRDNAKNTVYMQMNSLKPEDTAVYYCNAERIWPNRRSFWGQGTQVTVSS
B24: SR16983-R2-P4-E06 (VHH)
VHH: QLQLVESGGDLVQAGGSLRLSCAASGFTLDDYAIGWFRQAPGKEREGVSCIASSDGSTYYADSVKGRFTISTDNAKNTVYLQMNSLKPEDTAVYYCARGGLLLPKPELFDSWGQGTQVTVSS
B25: SR16983-R3-P5-F04 (VHH)
VHH: B24 VHH with D10G, D110E, S111Y
B26: SR16983-R2P1C08 (VHH)
VHH: QVQLVESGGGLVQPGGSLRLSCAASGRTFSNYAMGWFRQAPGKERRFVAGISRDDTSTSYADSVKGRFTILRDRSKNTVDLQMNSLKPEDTAIYYCAAARGIYGEISRYTGDYDSWGQGTQVTVSS
B27: SR16983-R2-P2-G01 (VHH)
VHH: EVQLVESGGGLVQAGESLRLSCVVSGSRFRISGMGWYRQAPEKQRELVAAITRGGSTNYSDSVKGRFTISSDNAKNTVYLQMNSLKPDDTDVYYCAATVLDIPTMSTDDYWGQGTQVTVSS
B28: SR16983-R2-P2-C04 (VHH)
VHH: QLQLVESGGGLVQAGGSLRLSCAASRTTFRINGVDWYRQVPGKQRELVATASSDGPTNYAESVKGRFTISRDNAKNTVYLQMNSLKPEDTAVYYCRIVLPSRIIWGQGTQVTVSS
B29: SR16983-R4-P1-A05 (VHH)
VHH: EVQLVESGGGLVQAGESLRLSCVLSGSTFGRNVITWYRQPPGKQREFIAMITTSGNTRYADSVKGRFTMSRDTAKNTAFLQMSNLKLEDTAVYYCWTAIAGQGEYWGQGTQVTVSS
B30: SR16983-R2-P2-D01 (VHH)
VHH: QLQLVESGGGLVQAGGSLRLSCVASGRTFSTYAMGWFRQAPGKEREFVGAIRWDGGSTNYANSVKGRFTISRDNAKNTVYLQVNSLKPEDTAVYYCAARASINYNYANWPYWGRGTQVTVSS
B31: SR16983-R2-P2-D08 (VHH)
VHH: QLQLVESGGGLVQAGDSLRLSCALSGLAASTYAMAWFRQAPGKEREFVSVIDWKGDSTTANSVKGRFTISRDHGKNTVYLQMNSLQPEDTALYYCAARGSPGYVAKLYAHWGRGTQVTVSS
B32: SR16983-R3-P3-F01 (VHH)
VHH: B31 VHH with Q1E, L2V, L24R, A28T, S57T, T59Y, H73N, G102A, K106R, H110Y
B33: SR16983-R3-P4-A08 (VHH)
VHH: B31 VHH with A23V, L24F, A28T, S57T, T59Y, H73N, K75N, N76K, K106R
B34: SR16983-R3P2H10 (VHH)
VHH: B2 VHH with V2L, R16G

Each binder was assayed against T1, human APC-PPACK (active site-blocked APC) (human, UniProt P04070 43-461, active site bound by the tripeptide inhibitor Phe-Pro-Arg-chloromethylketone (PPACK)) (assay: ELISA).
T1 construct: Bought (Haematologic Technologies)
T1 sequence (P04070 other isoform, or with tags, fused parts or gaps): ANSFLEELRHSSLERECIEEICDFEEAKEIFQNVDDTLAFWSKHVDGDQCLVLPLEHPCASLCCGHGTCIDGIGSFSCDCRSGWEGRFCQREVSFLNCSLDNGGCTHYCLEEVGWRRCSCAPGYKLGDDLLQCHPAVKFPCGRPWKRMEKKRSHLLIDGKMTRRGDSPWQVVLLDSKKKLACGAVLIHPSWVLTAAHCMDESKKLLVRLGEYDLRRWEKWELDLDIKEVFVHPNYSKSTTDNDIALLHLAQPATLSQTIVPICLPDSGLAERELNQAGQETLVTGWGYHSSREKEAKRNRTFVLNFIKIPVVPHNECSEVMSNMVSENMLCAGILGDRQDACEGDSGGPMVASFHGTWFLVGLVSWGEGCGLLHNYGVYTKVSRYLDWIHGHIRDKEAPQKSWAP

| Binder | binding result |
| --- | --- |
| B1 | binds |
| B2 | binds |
| B3 | binds |
| B4 | binds |
| B5 | binds |
| B6 | binds |
| B7 | binds |
| B8 | binds |
| B9 | binds |
| B10 | binds |
| B11 | binds |
| B12 | binds |
| B13 | binds |
| B14 | binds |
| B15 | binds |
| B16 | binds |
| B17 | binds |

| Binder | binding result |
| --- | --- |
| B18 | binds |
| B19 | binds |
| B20 | binds |
| B21 | binds |
| B22 | binds |
| B23 | binds |
| B24 | binds |
| B25 | binds |
| B26 | binds |
| B27 | binds |
| B28 | binds |
| B29 | binds |
| B30 | binds |
| B31 | binds |
| B32 | binds |
| B33 | binds |

Each binder was assayed against T2, human protein C (PC) zymogen (human, UniProt P04070 43-197; P04070 200-461) (assay: ELISA).
T2 construct: Bought
T2 sequence (P04070 43-197, chain 1 of 2): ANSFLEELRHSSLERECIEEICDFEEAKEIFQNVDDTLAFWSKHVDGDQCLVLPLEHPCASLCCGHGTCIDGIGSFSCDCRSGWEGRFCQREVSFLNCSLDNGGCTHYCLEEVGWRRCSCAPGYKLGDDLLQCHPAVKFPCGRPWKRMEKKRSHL
T2 sequence (P04070 200-461, chain 2 of 2): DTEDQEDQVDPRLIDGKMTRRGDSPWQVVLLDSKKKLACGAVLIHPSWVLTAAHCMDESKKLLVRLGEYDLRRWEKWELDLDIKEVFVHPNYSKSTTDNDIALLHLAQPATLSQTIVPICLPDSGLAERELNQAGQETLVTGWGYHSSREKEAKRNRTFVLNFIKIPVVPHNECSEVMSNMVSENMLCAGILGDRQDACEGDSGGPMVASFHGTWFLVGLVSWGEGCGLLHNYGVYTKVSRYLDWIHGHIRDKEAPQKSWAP

| Binder | binding result |
| --- | --- |
| B10 | no binding |
| B11 | no binding |
| B12 | no binding |
| B20 | no binding |
| B31 | no binding |
| B32 | no binding |
| B33 | no binding |

What follows are binders tested against T2, human protein C (PC) zymogen (assay: ELISA screen, PC-coated wells, OD450, n=2).

| Binder | binding result |
| --- | --- |
| B1 | no binding |
| B34 | no binding |
| B2 | no binding |
| B3 | no binding |
| B4 | no binding |
| B5 | no binding |
| B6 | no binding |
| B7 | no binding |
| B8 | no binding |
| B9 | no binding |
| B13 | no binding |
| B14 | no binding |
| B15 | no binding |
| B16 | no binding |
| B17 | no binding |
| B18 | no binding |
| B19 | no binding |
| B21 | no binding |
| B23 | no binding |
| B24 | no binding |
| B25 | no binding |
| B26 | no binding |
| B27 | no binding |
| B28 | no binding |
| B29 | no binding |

Each binder was assayed against T2, human protein C (PC) zymogen (assay: ELISA screen, PC-coated wells, OD450, n=2 [Continued]).

| Binder | binding result |
| --- | --- |
| B22 | no binding |
| B30 | no binding |
